Reference: patent publication US20240065978A1, “FORMULATIONS OF GLUCAGON-LIKE-PEPTIDE-2 (GLP-2) ANALOGUES” (Zealand Pharma A/S, priority 2018, published 2024)

Tests used:
[1] = in vivo; cited from earlier work
[2] = visual inspection for clarity and viscosity; type: physicochemical; conditions: 20 mg/mL; for Visual inspection Clear and non-viscous?: mannitol 230 mM, 24 hours at room temperature
Protocol: Stock solutions of mannitol (700 mM), phosphate buffer (200 mM) and ZP1848-acetate peptide (60.2 mg/mL) in water (Milli-Q) were prepared. Water was added up to 90% of final volume. If necessary, pH was then adjusted to the desired formulation pH using 1 M acetic acid/0.5 M L-arginine. Water was added up to the final volume. Sample containers were visually inspected for clarity and viscosity after 24 hours at room temperature.
Vials were visually inspected for clarity and viscosity. The viscosity was measured using a microVISC™ viscosimeter. The hydrodynamic radius was measured using a Wyatt DynaPro II Dynamic Light Scattering (DLS) Platereader. The sample size loaded on the plates was 170 μl. […]
(§1) Stock solutions of mannitol (700 mM), histidine (200 mM) and ZP1848 peptide solution (acetate salt; approx. 50 mg/mL) in Milli-Q water were prepared. Final concentration of peptide was 20 mg/mL, mannitol 230 mM, histidine 15 mM. Peptide stock solution was added to give the desired final peptide content. Water was added up to 90% of final volume. If necessary, pH was then adjusted to the desired formulation pH using 1 M acetic acid/0.5 M L-arginine. Water was added up to the final volume. Each formulation was filled in vials. Sample containers were visually inspected for clarity and viscosity and analysed for covalently linked oligomers by SEC, and peptide monomer stability by HPLC.
Stock solutions of mannitol (700 mM), histidine (200 mM), and ZP1848 peptide solution (acetate salt; approx. 50 mg/mL) in Milli-Q water were prepared. Final concentration of peptide was 20 and 2 mg/mL, mannitol 230 mM, and histidine 15 mM. Water was added up to 90% of final volume. If necessary, pH was then adjusted to the desired formulation pH (7.0) using 1 M acetic acid/0.5 M L-arginine. Water was added up to the final volume. Each formulation was filled in vials. Sample containers were visually inspected for clarity and viscosity and analysed for peptide monomer stability by HPLC.

[3] = covalently linked oligomers by size exclusion HPLC (peak area %); type: physicochemical; conditions: for Covalently linked oligomers: 24 months at 2-8° C., 230 mM mannitol, 15 mM histidine, pH 7
Protocol: As shown in the examples, this amount of covalently bonded oligomers can be determined using size exclusion chromatography and determining the area under the peaks for monomeric GLP-2 analogue and oligomers respectively. This can be done using a Dionex Ultimate3000 HPLC system, giving a linear gradient, at a flow rate of 0.5 mL/min was used for the analysis. The mobile phase consisted of 0.1% TFA in 45% acetonitrile and 55% Milli-Q water. A wavelength of 215 nm was used for detection. This means that the formulations of the present invention generally contain the GLP-2 analogue at a concentration of about 2 mg/mL to about 30 mg/mL, more preferably at a concentration of about 15 mg/mL to about 25 mg/mL, and most preferably at a concentration of about 20 mg/mL. In some aspects of the present invention, it is preferred that the concentration of the GLP-2 analogue is selected so that the formulation contains 10% or less, more preferably 5% or less, more preferably 4% or less, more preferably 3% or less, and more preferably 2% or less of the GLP-2 analogue in the form of covalently bonded oligomeric products, preferably after 18 months storage. By way of illustration, the amount of covalently bonded oligomeric product may be in the range of between 2% to 5%, more preferably in the range of between 2% to 4%, and most preferably in the range of between 2% to 3%.
For detection of covalently linked oligomers, a Dionex Ultimate3000 HPLC system, giving a linear gradient, at a flow rate of 0.5 mL/min was used for the analysis. The mobile phase consisted of 0.1% TFA in 45% acetonitrile and 55% Milli-Q water. A wavelength of 215 nm was used for detection. The injection amount was 4 μg of peptide. The column used for the separation of the covalently formed peptides was a TSKgel SuperSW2000 (TSK BioScience) with a 4 μm particle size and dimensions of 300*4.6 mm. The overall runtime was 25 minutes. For chemical stability evaluation of the peptide monomer a C18 column with an acidic mobile phase and an acetonitrile gradient was used.
Stock solutions of mannitol (700 mM), L-histidine (200 mM) and ZP1848 peptide (acetate salt; 60 mg/mL) in water (Milli-Q) were prepared. Mannitol and histidine solutions were mixed in amounts appropriate to give 230 mM mannitol and 15 mM histidine. Peptide stock solution was added to a final concentration of 0.2, 2 and 20 mg/mL, respectively. Water was added up to 90% of final volume. If necessary, pH was adjusted to pH 7 using 1 M acetic acid/0.5 M L-arginine. Water was added up to the final volume.
The oligomers of ZP1848-acetate are well separated from the ZP1848-acetate monomer and are all integrated as one peak. The area percentage of the peaks was used to quantify the amount of oligomers, in particular covalently linked dimers and trimers. […]
as §1

[4] = viscosity measured with microVISC viscosimeter; type: physicochemical; conditions: 20 mg/ml ZP1848-acetate, pH 7, acetate 6-15% (FIG. 2)
Protocol: In the examples below, the viscosity of the liquid formulations of the present invention is shown to be dependent on the total acetate concentration. Preferably, the formulations have a viscosity between 0.8 and 2.0 mPa/sec as measured at 25° C. Conveniently, the viscosity may be measured by using microVISC™. In parallel, the hydrodynamic radius may be measured using a Dynamic Light Scattering, DLS, Platereader (Wyatt DynaPro II). Samples were prepared having a drug substance (DS) of the GLP-2analogue containing 6% acetate and to mimic DS having 7.8-15% acetate, then acetate was added. Data from manufacturing formulations having varied the acetate concentration from 6.7-15% is shown below in FIG. 2. The effect of controlling the total acetate concentration is that the injectability of formulations of the present invention can be modulated, for example by reducing the total acetate concentration to provide a less viscous formulation that may be more easily injected.
Samples were prepared using a drug substance (DS) of the GLP-2 analogue ZP1848-acetate containing 6% acetate. […]
Vials were visually inspected for clarity and viscosity. The viscosity was measured using a microVISC™ viscosimeter. The hydrodynamic radius was measured using a Wyatt DynaPro II Dynamic Light Scattering (DLS) Platereader. […]

## CC[C@H](C)[C@H](NC(=O)[C@H](Cc1ccccc1)NC(=O)[C@H](CC(=O)O)NC(=O)[C@H](CCCNC(=N)N)NC(=O)[C@H](C)NC(=O)[C@H](C)NC(=O)[C@H](CC(C)C)NC(=O)[C@H](CC(N)=O)NC(=O)[C@H](CC(=O)O)NC(=O)[C@H](CC(C)C)NC(=O)[C@@H](NC(=O)[C@@H](NC(=O)[C@H](CC(N)=O)NC(=O)[C@H](CCSC)NC(=O)[C@H](CCC(=O)O)NC(=O)[C@H](CC(=O)O)NC(=O)[C@H](CO)NC(=O)[C@H](Cc1ccccc1)NC(=O)[C@H](CO)NC(=O)CNC(=O)[C@H](CC(=O)O)NC(=O)CNC(=O)[C@@H](N)Cc1c[nH]cn1)[C@@H](C)O)[C@@H](C)CC)C(=O)N[C@@H](CC(N)=O)C(=O)N[C@@H](Cc1c[nH]c2ccccc12)C(=O)N[C@@H](CC(C)C)C(=O)N[C@H](C(=O)N[C@@H](CCC(N)=O)C(=O)N[C@H](C(=O)N[C@@H](CCCCN)C(=O)N[C@H](C(=O)N[C@H](C(=O)N[C@@H](CC(=O)O)C(=O)O)[C@@H](C)O)[C@@H](C)CC)[C@@H](C)O)[C@@H](C)CC [teduglutide]
[1]
  half-life: about two

## (H-HGEGTFSSELATILDALAARDFIAWLIATKITDKKKKKK-NH2), x(CH3COOH) (also: acetate salt) [ZP1848-acetate]
[2]; pH 6.5-7.5, 20-50 mM phosphate buffer, 24 hrs at room temperature
  Visual inspection: turbid and/or highly viscous
[3]; 0.2 mg/mL
  Covalently linked oligomers: 2.60%
[3]; 2 mg/mL, 3 weeks at 40° C.
  formation of covalent oligomers, increase per week: 0.27%
[3]; 2 mg/mL, after 3 weeks at 40° C.
  formation of covalent oligomers: 1.2%
[3]; 20 mg/mL, 3 weeks at 40° C.
  formation of covalent oligomers, increase per week: 0.21%
[3]; 20 mg/mL
  Covalently linked oligomers: 1.35%
[3]; 20 mg/mL, after 3 weeks at 40° C.
  formation of covalent oligomers: 0.9%
[3]; long term storage at 2-8° C.
  concentration dependence for oligomer formation: inversely dependent on increasing concentration of the GLP-2 analogue
[3]; sorbitol, 3 weeks at 40° C.
  formation of covalent oligomers: 1.1%
[4]
  viscosity as a function of acetate concentration: increases in a non-linear manner at higher acetate concentration

## H-HGEGTFSSELATILDALAARDFIAWLIATKITDKKKKKK-NH2 [ZP1848]
[2]; pH 6.5, phosphate 20 mM
  Visual inspection Clear and non-viscous?: No
[2]; pH 7.0, phosphate 20 mM
  Visual inspection Clear and non-viscous?: No
[2]; pH 7.0, phosphate 50 mM
  Visual inspection Clear and non-viscous?: No
[2]; pH 7.5, phosphate 20 mM
  Visual inspection Clear and non-viscous?: No
[3]; 2 mg/mL
  Covalently linked oligomers: 1.91%
[3]; initial, before storage
  initial value of the amount of oligomer: less than 0.1%
